Results published in patent US20220396627A1 (VERSEAU THERAPEUTICS, published 2022).
One block for each binder: values may come before it.

Assays:
[1] = target: Human Siglec-9-Fc (recombinant human Siglec-9 extracellular domain Q18-G348 fused to human IgG1 Fc) (human); experiment: ELISA: plate coated with 1 ug/mL human Siglec-9-Fc, antibody at 100 nM, HRP anti-mouse Fc secondary, RLU
Protocol: ELISA plates (384-well) were coated with 1 ug/mL indicated SIGLEC protein at room temperature. The plates were washed with PBS with 0.1% Tween®20, pH 7.4 and blocked with TBS containing 3% BSA. The plates were washed and incubated with anti-SIGLEC9 antibody diluted to 100 nM. Plates were washed and incubated with HRP-coupled anti-mouse Fc secondary antibody. Plates underwent a final wash and were incubated with HRP substrate. Readout was performed using a POLARstar Omega Microplate Reader (BMG LAPTECH).

[2] = target: T1, Recombinant human Siglec-9-His (human, UniProt Q9Y336 18-348); experiment: BLI (Octet Red384), chimeric antibody on AHC sensor, His-tagged analyte 100-1.56 nM, 1:1 global fit
T1 construct: The entry begins at QTSK... like the Q18-G348 extracellular domain of the Fc fusion and ends in GSG and a His tag
T1 sequence (Q9Y336 other isoform, or with tags, fused parts or gaps limits assumed): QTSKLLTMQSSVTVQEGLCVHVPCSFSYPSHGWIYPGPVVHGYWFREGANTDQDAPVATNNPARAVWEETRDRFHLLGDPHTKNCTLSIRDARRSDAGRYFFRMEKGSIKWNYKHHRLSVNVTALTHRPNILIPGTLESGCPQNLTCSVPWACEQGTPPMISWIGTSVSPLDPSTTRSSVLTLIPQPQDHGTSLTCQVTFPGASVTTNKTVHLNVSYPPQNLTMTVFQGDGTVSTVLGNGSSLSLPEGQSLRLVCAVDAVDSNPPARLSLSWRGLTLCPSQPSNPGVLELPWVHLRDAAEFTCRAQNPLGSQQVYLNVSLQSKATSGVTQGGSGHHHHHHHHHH
Protocol: (§1) The binding affinity of chimeric antibodies was determined by biolayer interferometry (BLI), using a ForteBio Octet Red384 system. All samples were prepared in black 96-well flat bottom plates (Greiner, Cat. #655209) diluted in kinetics buffer (lx DPBS (Gibco, Cat. #LS14190250) containing 0.1% bovine serum albumin, 0.05% sodium azide, and 0.02% Tween®20). Anti-SIGLEC-9 antibodies (ligand) were diluted to a final concentration of 10 ug/mL and captured on anti-human IgG Fc capture (AHC) biosensors (ForteBio, Cat. #18-5060). […] Biosensors were rehydrated prior to the assay in kinetics buffer for 10 minutes and then equilibrated in kinetics buffer for 60 seconds. Antibody was then immobilized for 300 seconds followed by a 120 second baseline wash in fresh kinetics buffer, 300 second analyte association, and 300 second dissociation in the same buffer wells as the baseline wash step. All assay steps occurred at 30° C. with an acquisition rate of 5.0 Hz
(§2) Processing parameters included double reference subtraction, with human IgG4 used as an isotype control for reference sensor subtraction and immobilized ligand in kinetics buffer with no analyte used for reference sample subtraction. Y-axis data was aligned to the average baseline step for the last 5 seconds and all steps were inter-step corrected to the start of the dissociation step. High frequency noise was removed using Savitzky-Golay filtering and final fitting was a 1:1 global binding model to both association and dissociation.

[3] = target: T2, Recombinant human Siglec-7-His (human, UniProt Q9Y286 19-353, limits assumed); experiment: BLI (Octet Red384), chimeric antibody on AHC sensor, His-tagged analyte
T2 sequence (Q9Y286 19-353 limits assumed): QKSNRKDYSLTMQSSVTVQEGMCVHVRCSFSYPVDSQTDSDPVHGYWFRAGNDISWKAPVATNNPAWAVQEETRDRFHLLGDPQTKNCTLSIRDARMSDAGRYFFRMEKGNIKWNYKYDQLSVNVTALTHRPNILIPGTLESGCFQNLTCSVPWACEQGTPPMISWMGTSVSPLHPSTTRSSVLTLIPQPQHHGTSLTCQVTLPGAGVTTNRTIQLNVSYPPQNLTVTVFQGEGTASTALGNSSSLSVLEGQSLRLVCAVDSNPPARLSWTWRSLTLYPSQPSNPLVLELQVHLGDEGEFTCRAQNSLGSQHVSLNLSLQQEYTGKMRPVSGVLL
Protocol: as §1, §2

[4] = target: T3, Recombinant cyno Siglec-9-His (cynomolgus macaque); experiment: as above
T3 construct: also called Cynomolgus Monkey SIGLEC9-HIS
T3 sequence (chain, as listed by the source limits assumed): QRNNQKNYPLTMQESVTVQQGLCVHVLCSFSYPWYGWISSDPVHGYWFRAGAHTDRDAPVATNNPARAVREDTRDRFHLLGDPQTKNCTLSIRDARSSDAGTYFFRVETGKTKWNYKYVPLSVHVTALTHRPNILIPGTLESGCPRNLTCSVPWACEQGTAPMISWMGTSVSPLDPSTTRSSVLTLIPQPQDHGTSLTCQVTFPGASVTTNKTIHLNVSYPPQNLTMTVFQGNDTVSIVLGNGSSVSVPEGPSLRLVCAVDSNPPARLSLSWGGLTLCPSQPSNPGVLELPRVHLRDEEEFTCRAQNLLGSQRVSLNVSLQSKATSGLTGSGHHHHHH
Protocol: as §1, §2

[5] = target: T2, Recombinant human Siglec-7-His; experiment: BLI (Octet Red384), chimeric antibody on AHC sensor, His-tagged analyte 100-1.56 nM, 1:1 global fit
Protocol: as §1, §2

[6] = target: T3, Recombinant cyno Siglec-9-His; experiment: as above
Protocol: as §1, §2

Chain of Human Siglec-9-Fc (recombinant human Siglec-9 extracellular domain Q18-G348 fused to human IgG1 Fc) (human) (chain, as listed by the source limits assumed): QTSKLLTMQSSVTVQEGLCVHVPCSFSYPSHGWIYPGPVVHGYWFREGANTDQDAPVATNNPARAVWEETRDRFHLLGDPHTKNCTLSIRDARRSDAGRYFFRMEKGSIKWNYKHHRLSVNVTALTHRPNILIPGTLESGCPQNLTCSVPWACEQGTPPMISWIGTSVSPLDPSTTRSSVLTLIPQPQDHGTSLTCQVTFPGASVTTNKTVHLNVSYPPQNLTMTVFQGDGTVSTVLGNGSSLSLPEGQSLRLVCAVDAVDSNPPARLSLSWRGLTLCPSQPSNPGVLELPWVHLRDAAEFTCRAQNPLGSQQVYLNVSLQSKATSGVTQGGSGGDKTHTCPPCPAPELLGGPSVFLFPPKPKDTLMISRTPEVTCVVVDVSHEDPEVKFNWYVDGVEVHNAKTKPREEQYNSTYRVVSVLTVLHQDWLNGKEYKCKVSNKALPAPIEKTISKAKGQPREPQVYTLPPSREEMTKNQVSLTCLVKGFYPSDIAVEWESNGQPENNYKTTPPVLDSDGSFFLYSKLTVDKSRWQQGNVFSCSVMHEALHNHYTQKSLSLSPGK

binding result [1]: binds
B1: 2E23 (antibody, V domains shown)
VH: QVQLQQPGAELVKPGASVKLSCKASGYTFTSYWMHWVKQRPGQGLEWIGEINPSNGGTNYNEKFKSKATLTVDKSSSTAYMQLSSLTSEDSAVYYCTIYYGDYSYPIDYWGQGTSVTVSS
VL: QIVLTQSPAIMSASPGEKVTLTCSASSSVSSSYLYWYQQKPGSSPKLWIYSTSNLASGVPTRFSGSGSGTSYCLTISSMETEDAASYFCHQYSSYPFTFGSGTKLEIK

Kd [2]: 4.4 pM
B2: 3L02 mouse/human chimeric antibody (human IgG4 S228P, kappa) (antibody, V domains shown)
VH: DVQLQESGPGMVKPSQSLSLTCTVTGYSITSGYDWHWIRHFPGNKLEWMGYISYSAGTNYNPSLKSRISITHDTSKNHFFLKLNSVTTEDTATYYCAREGLTAYWYFDVWGTGTTVTVSS
VL: DIVMTQSQKFMSTSVGDRVSVTCKASQTVGTNVAWYQQKPGQSPKPLIYSASYRYSGVPDRFTGSGSGTDFTLTISNVQSEDLAEYFCQQYDSFPLTFGSGTKLEIKR
binding result [3]: no binding (tested: analyte titrated from 100 nM to 1.56 nM)
binding result [4]: no binding (tested: analyte titrated from 100 nM to 1.56 nM)

Kd [5]: 20000 pM
Kd [6]: 6.8 pM
Kd [2]: 2.1 pM
B3: 13J19 mouse/human chimeric antibody (human IgG4 S228P, kappa) (antibody, V domains shown)
VH: QVQLKESGPGLVAPSQSLSITCTVSGFSLTSYGVSWVRQPPGKGLEWLGVVWRDGTTNYHSALISRLSISKDNSKSQVFLKLNSLQTDDTATYYCARPYYGFFDYWGQGTTLTVSS
VL: SIVMTQTPKFLLVSAGDRVTVTCKASQSVSNAVAWYQQKPGQSPKLLIYYASNRYTGVPDRFTGSGYGTDFTFTISTVQAEDLAVYFCQQNYNSPYTFGGGTKLEIKR
notes: 13J19 is deposited as ATCC PTA-125945

Kd [2]: 2.6 pM
B4: 13H10 mouse/human chimeric antibody (human IgG4 S228P, kappa) (antibody, V domains shown)
VH: QVQLQQPGAELVKPGASVKLSCKASGYTFTSYWMYWVKQRPGQGLDLIGEINPSNGGTNYNEKFKSKATLTVDKSSGTAYMQLSSLTSEDSAVYYCAIWKDYYGISYEDWYFDVWGTGTTVTVSS
VL: DILLTQSPAILSVSPGERVSFSCRASQSIGTSIHWYQQRTNGSPRLLIKYASESISGIPSRFSGSGSGTDFTLSINSVESEDIADYYCQQSNSWPLTFGAGTKLELKR
notes: 13H10 is deposited as ATCC PTA-125944
binding result [3]: no binding (tested: analyte titrated from 100 nM to 1.56 nM)
binding result [4]: no binding (tested: analyte titrated from 100 nM to 1.56 nM)
